The values that follow come from publication PMC6806390.

One may read the stoichiometry N as a count of units in the complex or per binding partner.

For the test, the target named is Cytochrome-C, type III (Sigma C-2506) (UniProt P00004). Put plainly: SDS-PAGE of the methanol precipitate.

Cytochrome-C, type III (Sigma C-2506), P00004 1-105 (natural protein; other documents disagree on this pair), sequence (P00004 whole entry): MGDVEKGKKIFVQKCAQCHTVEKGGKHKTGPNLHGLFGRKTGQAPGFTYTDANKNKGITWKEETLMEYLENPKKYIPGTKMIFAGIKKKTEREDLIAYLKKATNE

Turning to “Cytochrome-C, type III (Sigma C-2506), P00004 1-105 (natural protein; other documents disagree on this pair)”, the stoichiometry N was more than 7.
